Assay results published in US20160251438A1 (LUDWIG INSTITUTE FOR CANCER RESEARCH, published 2016).

Legend:
Assay in all cases: flow cytometry on transfected 293T cells, 5 ug/ml; grade of Loss of binding read by footnote 2
[1] = target: GARP Y137H/S138G/G139N / TGF-β1 complex (human, UniProt Q14392 20-662; P01137 30-390)
Excerpt: (§1) Resolution of the crystal structure of MHG-8 Fab/GARP/TGF-β1 complexes and analysis with the CONTACT software allowed the identification of 22 amino-acids in GARP, 8 amino-acids in LAP and 6 amino-acids in mature TGF-β1 that are located less than 5 Å away from an amino-acid of the light or heavy chain of the MHG-8 Fab (Tables 7a, b and c, and Table 8). Directed mutagenesis was used to construct plasmids encoding HA-tagged forms of GARP or TGF-β1 that are mutated at one, two, or three of these 36 positions (all mutations constructed are indicated in Table 8). […] Antibodies were used at a saturating concentration of 5 μg/ml for labeling. Binding of each antibody to a given mutant GARP/TGF-β1 complex was compared to their binding to wild type (WT) complexes, by determining an I_{m/wt} value (i.e. intensity of binding to mutant by comparison to WT). This value was calculated as follows: I_{m/wt} of antibody X=[Geom on mutant−Geom on control]/[Geom on WT−Geom on control]
(§2) The level of residual binding of anti-GARP or anti-LAP antibodies to each mutant was then calculated by comparison to WT, taking into account the expression levels of mutant and WT forms as measured with anti-HA antibodies. Residual binding was calculated as follows: Residual binding by an anti-GARP or anti-LAP antibody=[I_{m/wt} with anti-GARP or anti-LAP antibody]/[I_{m/wt} with anti-HA antibody]

[2] = target: GARP G118L/G119L / TGF-β1 complex (human, UniProt Q14392 20-662; P01137 30-390)
Excerpt: as §1, §2

[3] = target: GARP / TGF-β1 R58A complex (human, UniProt Q14392 20-662; P01137 30-390)
Excerpt: as §1, §2

[4] = target: GARP M111T/A112G/T113M / TGF-β1 complex (human, UniProt Q14392 20-662; P01137 30-390)
Excerpt: as §1, §2

[5] = target: GARP G139N / TGF-β1 complex (human, UniProt Q14392 20-662; P01137 30-390)
Excerpt: as §1, §2

[6] = target: GARP R163E / TGF-β1 complex (human, UniProt Q14392 20-662; P01137 30-390)
Excerpt: as §1, §2

[7] = target: GARP / TGF-β1 E100A complex (human, UniProt Q14392 20-662; P01137 30-390)
Excerpt: as §1, §2

[8] = target: GARP / TGF-β1 H270Y complex (human, UniProt Q14392 20-662; P01137 30-390)
Excerpt: as §1, §2

[9] = target: GARP T165A / TGF-β1 complex (human, UniProt Q14392 20-662; P01137 30-390)
Excerpt: as §1, §2

[10] = target: GARP R163A/T165A / TGF-β1 complex (human, UniProt Q14392 20-662; P01137 30-390)
Excerpt: as §1, §2

[11] = target: GARP L140K/E142L / TGF-β1 complex (human, UniProt Q14392 20-662; P01137 30-390)
Excerpt: as §1, §2

[12] = target: GARP T162D / TGF-β1 complex (human, UniProt Q14392 20-662; P01137 30-390)
Excerpt: as §1, §2

[13] = target: GARP / TGF-β1 Y284A complex (human, UniProt Q14392 20-662; P01137 30-390)
Excerpt: as §1, §2

[14] = target: GARP / TGF-β1 A341Y complex (human, UniProt Q14392 20-662; P01137 30-390)
Excerpt: as §1, §2

[15] = target: GARP / TGF-β1 S337A complex (human, UniProt Q14392 20-662; P01137 30-390)
Excerpt: as §1, §2

[16] = target: GARP E189A / TGF-β1 complex (human, UniProt Q14392 20-662; P01137 30-390)
Excerpt: as §1, §2

[17] = target: GARP / TGF-β1 Q345A complex (human, UniProt Q14392 20-662; P01137 30-390)
Excerpt: as §1, §2

[18] = target: GARP / TGF-β1 E146R complex (human, UniProt Q14392 20-662; P01137 30-390)
Excerpt: as §1, §2

Sequence of GARP G118L/G119L / TGF-β1 complex (Q14392 20-662 G118L/G119L limits assumed, chain 1 of 2): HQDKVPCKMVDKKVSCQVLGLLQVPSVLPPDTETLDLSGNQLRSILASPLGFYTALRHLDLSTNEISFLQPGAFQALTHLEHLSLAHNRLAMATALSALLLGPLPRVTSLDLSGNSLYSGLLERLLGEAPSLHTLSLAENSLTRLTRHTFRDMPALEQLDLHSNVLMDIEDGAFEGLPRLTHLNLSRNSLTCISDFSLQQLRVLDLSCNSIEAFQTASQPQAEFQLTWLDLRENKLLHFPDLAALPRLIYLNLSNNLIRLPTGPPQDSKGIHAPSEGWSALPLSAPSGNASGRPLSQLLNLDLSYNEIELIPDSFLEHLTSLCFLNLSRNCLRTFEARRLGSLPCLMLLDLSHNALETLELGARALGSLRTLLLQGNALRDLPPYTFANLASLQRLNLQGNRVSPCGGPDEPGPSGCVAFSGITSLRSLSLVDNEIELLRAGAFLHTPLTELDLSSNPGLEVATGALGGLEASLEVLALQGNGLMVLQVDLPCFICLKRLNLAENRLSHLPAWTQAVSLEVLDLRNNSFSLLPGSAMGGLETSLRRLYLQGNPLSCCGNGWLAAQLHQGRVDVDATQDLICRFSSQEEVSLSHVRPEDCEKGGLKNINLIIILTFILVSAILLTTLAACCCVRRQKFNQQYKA
Sequence of GARP G118L/G119L / TGF-β1 complex (P01137 30-390 limits assumed, chain 2 of 2): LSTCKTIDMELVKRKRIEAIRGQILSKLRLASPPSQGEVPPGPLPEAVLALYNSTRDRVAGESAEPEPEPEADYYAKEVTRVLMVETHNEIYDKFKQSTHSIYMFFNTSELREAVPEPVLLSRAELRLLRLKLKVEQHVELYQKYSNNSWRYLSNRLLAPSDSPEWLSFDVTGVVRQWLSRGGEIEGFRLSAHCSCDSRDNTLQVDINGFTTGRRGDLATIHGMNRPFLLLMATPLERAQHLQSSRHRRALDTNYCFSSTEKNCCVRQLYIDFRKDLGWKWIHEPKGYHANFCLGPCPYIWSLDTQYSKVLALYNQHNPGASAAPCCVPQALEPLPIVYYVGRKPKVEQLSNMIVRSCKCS
Sequence of GARP R163E / TGF-β1 complex (Q14392 20-662 R163E limits assumed, chain 1 of 2): as the sequence (Q14392 20-662 G118L/G119L limits assumed, chain 1 of 2) above, with L99G, L100G, R144E counted along it
Sequence of GARP R163E / TGF-β1 complex (P01137 30-390 limits assumed, chain 2 of 2): as the sequence (P01137 30-390 limits assumed, chain 2 of 2) above
Sequence of GARP T162D / TGF-β1 complex (Q14392 20-662 T162D limits assumed, chain 1 of 2): as the sequence (Q14392 20-662 G118L/G119L limits assumed, chain 1 of 2) above, with L99G, L100G, T143D counted along it
Sequence of GARP T162D / TGF-β1 complex (P01137 30-390 limits assumed, chain 2 of 2): as the sequence (P01137 30-390 limits assumed, chain 2 of 2) above
Sequence of GARP M111T/A112G/T113M / TGF-β1 complex (Q14392 20-662 M111T/A112G/T113M limits assumed, chain 1 of 2): as the sequence (Q14392 20-662 G118L/G119L limits assumed, chain 1 of 2) above, with M92T, A93G, T94M, L99G, L100G counted along it
Sequence of GARP M111T/A112G/T113M / TGF-β1 complex (P01137 30-390 limits assumed, chain 2 of 2): as the sequence (P01137 30-390 limits assumed, chain 2 of 2) above

B1: LHG-10 (antibody, human IgG1, V domains shown)
VH: EVQLVQPGAELRNSGASVKVSCKASGYRFTSYYIDWVRQAPGQGLEWMGRIDPEDGGTKYAQKFQGRVTFTADTSTSTAYVELSSLRSEDTAVYYCARNEWETVVVGDLMYEYEYWGQGTQVTVSS
VL: DIQMTQSPTSLSASLGDRVTITCQASQSISSYLAWYQQKPGQAPKLLIYGASRLQTGVPSRFSGSGSGTSFTLTISGLEAEDAGTYYCQQYDSLPVTFGQGTKVELK
notes: llama-derived V regions in a full human IgG1
residual binding on mutant by comparison to WT [1]: < 50%
residual binding on mutant by comparison to WT [2]: ≥ 50%
residual binding on mutant by comparison to WT [3]: ≥ 50%
residual binding on mutant by comparison to WT [4]: ≥ 50%
residual binding on mutant by comparison to WT [5]: ≥ 50%
residual binding on mutant by comparison to WT [6]: < 50%
residual binding on mutant by comparison to WT [7]: ≥ 50%
residual binding on mutant by comparison to WT [8]: ≥ 50%
residual binding on mutant by comparison to WT [9]: ≥ 50%
residual binding on mutant by comparison to WT [10]: ≥ 50%
residual binding on mutant by comparison to WT [11]: ≥ 50%
residual binding on mutant by comparison to WT [12]: < 50%
residual binding on mutant by comparison to WT [13]: ≥ 50%
residual binding on mutant by comparison to WT [14]: ≥ 50%
residual binding on mutant by comparison to WT [15]: ≥ 50%
residual binding on mutant by comparison to WT [16]: ≥ 50%
residual binding on mutant by comparison to WT [17]: ≥ 50%
residual binding on mutant by comparison to WT [18]: ≥ 50%
